By Kd is commonly meant the free concentration of one partner at which half of the binding sites on the other are occupied at equilibrium, for simple one-to-one binding. Read a high Kd as a looser complex.

Here are results for five molecules from paper PMC5190049, “Immunogenicity of mammary tumor cells can be induced by shikonin via direct binding-interference with hnRNPA1” (Oncotarget, 2016).

One data set has as its target T1, hnRNPA1 (UP1) (Homo sapiens, UniProt P09651).
T1 construct: UP1, first 196 amino acids (N-terminal fragment with both RRMs); pET-42a, GST-His tag cut by Factor Xa; E. coli BL21(DE3)
Briefly: isothermal titration calorimetry. In kind it is binding. For orientation: Isothermal titration calorimetry measures the heat released or taken up as one component is titrated into another.

Data set [1] addresses T2, hnRNPA1 N-terminal fragment (UP1) (human, UniProt P09651 1-196). The data set is described as follows: ITC; N = 1.17 +/- 0.128; pH 7.0; 3 uM UP1, 60 uM RNA; Kd not given in text; EMSA: 20 mM HEPES, 50 mM KCl, 1 mM EDTA, 5 mM MgCl2, 0.1 mg/ml tRNA, 0.1 mg/ml BSA, 5 mM DTT, 10% glycerol, room temperature; ITC: 300 mM NaCl, 50 mM Tris-HCl. The settings on record: protein: recombinant; tags: GST-His fusion tag removed with Factor Xa.

For data set [2], the target named is T2, hnRNPA1 N-terminal fragment (UP1). Briefly: EMSA; without shikonin; shikonin 0-4 ug/test disrupts binding; EMSA: 20 mM HEPES, 50 mM KCl, 1 mM EDTA, 5 mM MgCl2, 0.1 mg/ml tRNA, 0.1 mg/ml BSA, 5 mM DTT, 10% glycerol, room temperature; ITC: 300 mM NaCl, 50 mM Tris-HCl. The following applies: protein: recombinant; tags: GST-His fusion tag removed with Factor Xa; label: 5'-biotin.

The target is the same in data set [3]. Briefly: EMSA; without shikonin; shikonin 0-4 ug/test disrupts binding dose-dependently; EMSA: 20 mM HEPES, 50 mM KCl, 1 mM EDTA, 5 mM MgCl2, 0.1 mg/ml tRNA, 0.1 mg/ml BSA, 5 mM DTT, 10% glycerol, room temperature; ITC: 300 mM NaCl, 50 mM Tris-HCl. The settings on record: protein: recombinant; tags: GST-His fusion tag removed with Factor Xa; label: 5'-biotin. For orientation: Mobility shift assays separate free from complexed probe on a gel.

Data set [4] has the same target. Briefly: EMSA; shikonin 0-4 ug/test; EMSA: 20 mM HEPES, 50 mM KCl, 1 mM EDTA, 5 mM MgCl2, 0.1 mg/ml tRNA, 0.1 mg/ml BSA, 5 mM DTT, 10% glycerol, room temperature; ITC: 300 mM NaCl, 50 mM Tris-HCl. The following applies: protein: recombinant; tags: GST-His fusion tag removed with Factor Xa; label: 5'-biotin.

T2 sequence (P09651 1-196): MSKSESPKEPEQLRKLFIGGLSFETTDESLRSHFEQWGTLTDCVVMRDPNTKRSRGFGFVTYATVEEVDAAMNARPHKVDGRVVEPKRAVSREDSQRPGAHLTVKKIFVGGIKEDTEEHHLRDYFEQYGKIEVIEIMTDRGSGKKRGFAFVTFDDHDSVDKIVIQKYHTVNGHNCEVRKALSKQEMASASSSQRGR
T1 sequence (P09651 1-196): as above

`CC(C)=CC[C@@H](O)C1=CC(=O)c2c(O)ccc(O)c2C1=O` [shikonin] displayed a Kd on hnRNPA1 (UP1) of 71.2 µM.
For AUUUAGGGAUUUAGGGAAUG (ssRNA) [WT RNA (ITC)], the binding result in data set [1] is “binds”.
Regarding AUUUAGGGAUUUAGGGAAUG (ssRNA) [WT RNA], the binding result in data set [2] is on record as “binds”.
With TTAGGGTTAGCG (ssDNA) [TR2], the binding result in data set [3] was “binds”.
In the case of AUUUCGGGAUUUCGGGAAUG (ssRNA) [M3 RNA (called M2 in Figure 2c legend)], in data set [4], the binding result was “no binding”.
